In paper PMC2899456 (International Journal of Biological Sciences, 2010):

Assays:
Test in all cases: co-IP
E2F-1/S403A = E2F-1/S403A (UniProt Q01094 1-437, S403A)
E2F-1/S375A = E2F-1/S375A (UniProt Q01094 1-437, S375A)
E2F-1/Y411A = E2F-1/Y411A (UniProt Q01094 1-437, Y411A)
E2F-1/S332-7A = E2F-1/S332-7A (UniProt Q01094 1-437, S332-7A | S332-7A)

fold change of the pRB/E2F-1 co-IP ratio against E2F-1/wt (E2F-1/S403A): ~3 fold (increase) | fold change of the pRB/E2F-1 co-IP ratio against E2F-1/wt (E2F-1/S375A): ~2.5 fold (increase) | fold change of the pRB/E2F-1 co-IP ratio against E2F-1/wt (E2F-1/Y411A): ~4 fold (decrease) | fold change of the pRB/E2F-1 co-IP ratio against E2F-1/wt (E2F-1/S332-7A): ~3 fold (increase)
B1: pRB (natural protein, mouse (endogenous in ψ-CRE), UniProt P13405 1-921, looked up)
chain: MPPKAPRRAAAAEPPPPPPPPPREDDPAQDSGPEELPLARLEFEEIEEPEFIALCQKLKVPDHVRERAWLTWEKVSSVDGILEGYIQKKKELWGICIFIAAVDLDEMPFTFTELQKSIETSVYKFFDLLKEIDTSTKVDNAMSRLLKKYNVLCALYSKLERTCELIYLTQPSSALSTEINSMLVLKISWITFLLAKGEVLQMEDDLVISFQLMLCVVDYFIKFSPPALLREPYKTAAIPINGSPRTPRRGQNRSARIAKQLENDTRIIEVLCKEHECNIDEVKNVYFKNFIPFINSLGIVSSNGLPEVESLSKRYEEVYLKNKDLDARLFLDHDKTLQTDPIDSFETERTPRKNNPDEEANVVTPHTPVRTVMNTIQQLMVILNSASDQPSENLISYFNNCTVNPKENILKRVKDVGHIFKEKFANAVGQGCVDIGVQRYKLGVRLYYRVMESMLKSEEERLSIQNFSKLLNDNIFHMSLLACALEVVMATYSRSTLQHLDSGTDLSFPWILNVLNLKAFDFYKVIESFIKVEANLTREMIKHLERCEHRIMESLAWLSDSPLFDLIKQSKDGEGPDNLEPACPLSLPLQGNHTAADMYLSPLRSPKKRTSTTRVNSAANTETQAASAFHTQKPLKSTSLALFYKKVYRLAYLRLNTLCARLLSDHPELEHIIWTLFQHTLQNEYELMRDRHLDQIMMCSMYGICKVKNIDLKFKIIVTAYKDLPHAAQETFKRVLIREEEFDSIIVFYNSVFMQRLKTNILQYASTRPPTLSPIPHIPRSPYKFSSSPLRIPGGNIYISPLKSPYKISEGLPTPTKMTPRSRILVSIGESFGTSEKFQKINQMVCNSDRVLKRSAEGGNPPKPLKKLRFDIEGADEADGSKHLPAESKFQQKLAEMTSTRTRMQKQRMNESKDVSNKEEK
